Data reported in PMC9482650, “Quantitative fragmentomics allow affinity mapping of interactomes” (Nature Communications, 2022).
Positions count from the first letter of the chain named.

What was measured:
Test in all cases: holdup assay
Set-up in all cases: key: below the threshold = too weak to quantify, mostly under pKd 3.1 to 4
[1] = target: T1, ARHGEF11, O15085
T1 sequence (O15085 42-136, limits assumed, looked up): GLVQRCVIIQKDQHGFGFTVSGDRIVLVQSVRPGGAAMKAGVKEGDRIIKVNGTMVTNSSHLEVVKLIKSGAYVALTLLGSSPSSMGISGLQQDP

[2] = target: PDLIM1, O00151
PDLIM1, O00151, sequence (O00151 1-87): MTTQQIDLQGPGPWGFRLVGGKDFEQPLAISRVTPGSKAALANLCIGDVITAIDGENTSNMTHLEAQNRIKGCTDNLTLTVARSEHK

[3] = target: T2, LIN7A, O14910
T2 sequence (O14910 103-200, limits assumed, looked up): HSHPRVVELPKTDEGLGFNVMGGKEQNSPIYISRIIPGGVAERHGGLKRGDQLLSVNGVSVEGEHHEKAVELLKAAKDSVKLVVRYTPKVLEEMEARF

[4] = target: T3, LNX2_3, Q8N448
T3 sequence (Q8N448 463-564, limits assumed, looked up): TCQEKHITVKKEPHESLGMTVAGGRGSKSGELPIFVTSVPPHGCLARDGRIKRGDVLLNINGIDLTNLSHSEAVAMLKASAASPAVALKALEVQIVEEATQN

[5] = target: NHERF2_2, Q15599
NHERF2_2, Q15599, sequence (Q15599 142-238): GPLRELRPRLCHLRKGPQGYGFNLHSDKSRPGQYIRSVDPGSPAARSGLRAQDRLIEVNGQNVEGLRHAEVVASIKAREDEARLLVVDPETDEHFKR

[6] = target: T4, ARHGAP21, Q5T5U3
T4 sequence (Q5T5U3 45-169, limits assumed, looked up): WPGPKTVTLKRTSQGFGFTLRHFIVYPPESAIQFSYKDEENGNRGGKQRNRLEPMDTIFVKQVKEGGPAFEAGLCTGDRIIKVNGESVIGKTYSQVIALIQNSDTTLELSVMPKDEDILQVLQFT

[7] = target: T5, DLG3_3, Q92796
T5 sequence (Q92796 374-475, limits assumed, looked up): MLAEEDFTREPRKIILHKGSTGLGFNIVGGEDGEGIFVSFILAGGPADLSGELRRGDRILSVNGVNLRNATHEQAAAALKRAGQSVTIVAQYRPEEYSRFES

[8] = target: T6, LIN7B, Q9HAP6
T6 sequence (Q9HAP6 88-185, limits assumed, looked up): T2 sequence (O14910 103-200, limits assumed, looked up) with S2A, V20I, I35V, E42D, H65Q, K77Q, D78G, K89R

[9] = target: GRIP2_6, Q9C0E4
GRIP2_6, Q9C0E4, sequence (Q9C0E4 648-740): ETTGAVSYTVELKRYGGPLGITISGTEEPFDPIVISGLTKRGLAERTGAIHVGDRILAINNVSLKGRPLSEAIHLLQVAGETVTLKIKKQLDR

[10] = target: T7, MPP2, Q14168
T7 sequence (Q14168 180-250, limits assumed, looked up): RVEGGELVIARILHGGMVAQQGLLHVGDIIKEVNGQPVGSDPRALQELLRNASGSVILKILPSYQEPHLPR

[11] = target: T8, PARD3B_1, Q8TEW8
T8 sequence (Q8TEW8 196-299, limits assumed, looked up): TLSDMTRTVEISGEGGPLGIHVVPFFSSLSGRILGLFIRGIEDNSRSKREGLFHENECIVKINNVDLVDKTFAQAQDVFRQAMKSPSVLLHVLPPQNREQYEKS

[12] = target: FRMPD4, Q14CM0
FRMPD4, Q14CM0, sequence (Q14CM0 67-160): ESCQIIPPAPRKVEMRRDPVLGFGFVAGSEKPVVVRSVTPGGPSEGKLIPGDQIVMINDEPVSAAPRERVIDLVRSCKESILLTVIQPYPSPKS

[13] = target: NOS1, P29475
NOS1, P29475, sequence (P29475 9-101): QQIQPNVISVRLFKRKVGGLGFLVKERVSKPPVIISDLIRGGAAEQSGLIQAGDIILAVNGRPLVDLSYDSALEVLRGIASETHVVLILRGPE

[14] = target: CASK, O14936
CASK, O14936, sequence (O14936 487-570): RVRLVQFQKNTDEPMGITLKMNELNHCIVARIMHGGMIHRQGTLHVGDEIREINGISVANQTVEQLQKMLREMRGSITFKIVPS

[15] = target: T9, DVL3, Q92997
T9 sequence (Q92997 244-331, limits assumed, looked up): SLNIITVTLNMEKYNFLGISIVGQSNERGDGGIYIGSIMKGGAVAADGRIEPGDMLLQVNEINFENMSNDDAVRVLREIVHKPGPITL

[16] = target: IL16_1, Q14005
IL16_1, Q14005, sequence (Q14005 210-306): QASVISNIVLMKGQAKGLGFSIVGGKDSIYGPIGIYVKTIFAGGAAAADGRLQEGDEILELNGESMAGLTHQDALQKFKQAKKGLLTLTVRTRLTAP

[17] = target: HTRA1, Q92743
HTRA1, Q92743, sequence (Q92743 360-477): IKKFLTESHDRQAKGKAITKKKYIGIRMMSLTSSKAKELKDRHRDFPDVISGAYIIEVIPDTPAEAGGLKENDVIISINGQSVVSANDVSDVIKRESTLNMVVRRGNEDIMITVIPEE

[18] = target: T10, SIPA1L2, Q9P2F8
T10 sequence (Q9P2F8 945-1036, limits assumed, looked up): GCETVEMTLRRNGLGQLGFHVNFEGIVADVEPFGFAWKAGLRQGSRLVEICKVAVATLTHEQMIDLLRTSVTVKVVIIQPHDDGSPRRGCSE

[19] = target: T11, SNTA1, Q13424
T11 sequence (Q13424 82-180, limits assumed, looked up): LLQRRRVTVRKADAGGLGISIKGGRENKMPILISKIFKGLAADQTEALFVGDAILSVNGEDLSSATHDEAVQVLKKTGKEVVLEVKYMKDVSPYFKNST

[20] = target: GRASP, Q7Z6J2
GRASP, Q7Z6J2, sequence (Q7Z6J2 96-193): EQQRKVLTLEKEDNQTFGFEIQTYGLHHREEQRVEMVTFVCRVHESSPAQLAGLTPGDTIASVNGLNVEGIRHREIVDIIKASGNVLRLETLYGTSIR

[21] = target: HTRA2, O43464
HTRA2, O43464, sequence (O43464 355-458): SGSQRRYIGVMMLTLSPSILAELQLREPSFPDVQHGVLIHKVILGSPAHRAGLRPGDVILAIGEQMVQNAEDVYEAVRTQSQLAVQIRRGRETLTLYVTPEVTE

[22] = target: T12, APBA2_2, Q99767
T12 sequence (Q99767 654-744, limits assumed, looked up): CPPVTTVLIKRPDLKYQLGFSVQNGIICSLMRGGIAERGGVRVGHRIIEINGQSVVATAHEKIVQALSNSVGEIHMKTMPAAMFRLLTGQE

[23] = target: MAST1, Q9Y2H9
MAST1, Q9Y2H9, sequence (Q9Y2H9 962-1065): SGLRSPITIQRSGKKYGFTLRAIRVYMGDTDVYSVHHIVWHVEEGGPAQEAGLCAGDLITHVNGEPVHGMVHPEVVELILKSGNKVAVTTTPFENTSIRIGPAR

[24] = target: SCRIB_1, Q14160
SCRIB_1, Q14160, sequence (Q14160 718-814): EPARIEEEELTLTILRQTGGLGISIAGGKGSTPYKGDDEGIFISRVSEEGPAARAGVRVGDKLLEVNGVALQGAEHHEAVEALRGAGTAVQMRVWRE

[25] = target: MAGI2_2, Q86UL8
MAGI2_2, Q86UL8, sequence (Q86UL8 410-522): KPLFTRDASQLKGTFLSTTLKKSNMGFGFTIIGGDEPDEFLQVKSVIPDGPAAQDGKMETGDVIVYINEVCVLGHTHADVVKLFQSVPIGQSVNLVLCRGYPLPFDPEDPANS

[26] = plain residues with an end cap or a label only (N-terminal biotin on a linker: ado-ado)
[27] = plain residues with an end cap or a label only (N-terminal biotin on a linker: ttds)
[28] = plain residues with an end cap or a label only (N-terminal biotin on a linker: ahx)

## ELKAEDEVQI [DCHS2, Q6V1P9]
[1]; [26]
  pKd: below the threshold
[2]; [26]
  pKd: below the threshold
[3]; [26]
  pKd: below the threshold
[4]; [26]
  pKd: below the threshold
[5]; [26]
  pKd: below the threshold
[6]; [26]
  pKd: 3.92
[7]; [26]
  pKd: below the threshold
[8]; [26]
  pKd: 3.48
[9]; [26]
  pKd: below the threshold
[10]; [26]
  pKd: below the threshold
[11]; [26]
  pKd: 3.89
[12]; [26]
  pKd: below the threshold
[13]; [26]
  pKd: 3.74
[14]; [26]
  pKd: below the threshold
[15]; [26]
  pKd: below the threshold
[16]; [26]
  pKd: below the threshold
[17]; [26]
  pKd: 4.25
[18]; [26]
  pKd: below the threshold
[19]; [26]
  pKd: below the threshold
[20]; [26]
  pKd: below the threshold
[21]; [26]
  pKd: below the threshold
[22]; [26]
  pKd: below the threshold
[23]; [26]
  pKd: below the threshold
[24]; [26]
  pKd: below the threshold
[25]; [26]
  pKd: below the threshold

## SGGKRKETLV [NET1, Q7Z628]
[1]; [27]
  pKd: 4.23
[2]; [27]
  pKd: below the threshold
[3]; [27]
  pKd: below the threshold
[4]; [27]
  pKd: below the threshold
[5]; [27]
  pKd: below the threshold
[6]; [27]
  pKd: below the threshold
[7]; [27]
  pKd: 5.05
[8]; [27]
  pKd: 3.81
[9]; [27]
  pKd: below the threshold
[10]; [27]
  pKd: below the threshold
[11]; [27]
  pKd: 3.52
[12]; [27]
  pKd: 3.65
[13]; [27]
  pKd: 4.09
[14]; [27]
  pKd: below the threshold
[15]; [27]
  pKd: below the threshold
[16]; [27]
  pKd: below the threshold
[17]; [27]
  pKd: below the threshold
[18]; [27]
  pKd: below the threshold
[19]; [27]
  pKd: 4.25
[20]; [27]
  pKd: below the threshold
[21]; [27]
  pKd: below the threshold
[22]; [27]
  pKd: below the threshold
[23]; [27]
  pKd: 4.33
[24]; [27]
  pKd: 4
[25]; [27]
  pKd: 5.87

## SAPATLSSRA [PDLIM2, Q96JY6]
[1]; [28]
  pKd: below the threshold
[2]; [28]
  pKd: below the threshold
[3]; [28]
  pKd: below the threshold
[4]; [28]
  pKd: below the threshold
[5]; [28]
  pKd: below the threshold
[6]; [28]
  pKd: below the threshold
[7]; [28]
  pKd: below the threshold
[8]; [28]
  pKd: below the threshold
[9]; [28]
  pKd: below the threshold
[10]; [28]
  pKd: below the threshold
[11]; [28]
  pKd: below the threshold
[12]; [28]
  pKd: below the threshold
[13]; [28]
  pKd: below the threshold
[14]; [28]
  pKd: below the threshold
[15]; [28]
  pKd: below the threshold
[16]; [28]
  pKd: below the threshold
[17]; [28]
  pKd: below the threshold
[18]; [28]
  pKd: below the threshold
[19]; [28]
  pKd: below the threshold
[20]; [28]
  pKd: below the threshold
[21]; [28]
  pKd: below the threshold
[22]; [28]
  pKd: below the threshold
[23]; [28]
  pKd: below the threshold
[24]; [28]
  pKd: below the threshold
[25]; [28]
  pKd: below the threshold
